We go through one molecule from PMC7505815, “Estrogen receptor alpha (ERα)–mediated coregulator binding and gene expression discriminates the toxic ERα agonist diethylstilbestrol (DES) from the endogenous ERα agonist 17β-estradiol (E2)” (Cell Biology and Toxicology, 2020).

The assay deals with T1, Polyhistidine (His) tagged ERα ligand binding domain (amino acids 302–552) (UniProt P03372 302-552).
T1 construct: Detected on the array by a penta-His Alexa Fluor 488 antibody; Always tested with E2, DES or solvent (2% DMSO); also called ERα-LBD; source: partly purified from Escherichia coli (Qiagen)
T1 sequence (looked up): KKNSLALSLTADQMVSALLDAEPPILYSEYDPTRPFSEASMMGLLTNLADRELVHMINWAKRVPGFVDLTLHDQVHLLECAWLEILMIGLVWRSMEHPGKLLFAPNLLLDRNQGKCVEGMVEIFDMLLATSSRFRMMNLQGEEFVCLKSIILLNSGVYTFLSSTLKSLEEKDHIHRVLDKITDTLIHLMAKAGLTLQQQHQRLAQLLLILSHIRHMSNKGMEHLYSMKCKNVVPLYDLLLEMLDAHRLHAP
Description: peptide or protein array; MARCoNI, PamChip peptide microarray: coregulator motif peptides immobilised; His-ERα-LBD 10 nM (partly purified) in solution with E2 (10^-12 to 10^-5 M), detected with penta-His Alexa Fluor 488 antibody 25 nM; 20 °C; 20 mM Tris-HCl pH 7.5, 500 mM NaCl, 0.2% BSA, 0.05% Tween 20, 2% DMSO. The note with it: both partners purified.

B1: TRRAP_3535_3557_C3535S/C3555S (peptide, UniProt Q9Y4A5 3535-3557, looked up)
peptide: SLTESRREERVLQLLRLLNPSLE
notes: Immobilised on the PamChip; also called TRRAP_3535_3557_C3535S/C3535S; source: bought: PamChip peptide microarray, PamGene International BV
Regarding B1, the binding result is listed as “binds”.
